Test results published in the supplement of paper PMC9170038.

System: MS2 coat protein
Test: apparent KD of MS2 coat protein; designed switch direction (-1 OFF switch, 1 ON switch): -1; higher = weaker reporter binding
Method in brief: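 SNAP-549-labelled MS2 coat protein was titrated, doubling from 0.7 or 1.5 nM to 3 µM, over designed RNA switches transcribed on Illumina chips by stalled E. coli RNA polymerase. Runs were done without input, with 200 uM small-molecule ligand, or with an oligonucleotide input. Apparent KD is the per-design median over clusters of curve-fitted normalised fluorescence.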

[1] = input ligand: microRNA oligo, concentration not stated
[2] = Eterna round: R95, input ligand: FMN 200 uM
[3] = Eterna round: R95, input ligand: microRNA oligo, concentration not stated
[4] = Eterna round: R95, input ligand: none

Sequence	apparent KD of MS2 coat protein (input ligand: FMN 200 uM) [nM]	apparent KD of MS2 coat protein (input ligand: none) [nM]	apparent KD of MS2 coat protein [1] [nM]	apparent KD of MS2 coat protein [2] [nM]	apparent KD of MS2 coat protein [3] [nM]	apparent KD of MS2 coat protein [4] [nM]
UCUACGUCAGGAUAUACAAGCGGUGCUCUGAUGCUGUCCAGACAUGAGGAUCACCCAUGUAGAAGGGACGACAA [Eternabot (L1) Solution 68] (Eterna round: R97, puzzle: Exclusion 2)	42.6	365	–	–	–	–
UGUUGUUACGCAGGAUAUGAGGAUCACCCAUAUAAGGAUAUCGAAAGAGAAGUUCUGAGGAUCACCCAGAAGGGCGGGUUAACA [pwkr exNG2 2xF5 2xFMN.31] (Eterna round: R96, puzzle: Exclusion NG 2)	193	71.1	59	–	–	–
GUCUUGUCAGGAUAUCUUACAUAACAAUCGUAGUUACAAUUGGAGAAGGGACAUGAGGAUCACCCAUGUUAGCA [tap-tap-tappy36] (Eterna round: R97, puzzle: Exclusion 4)	26.5	26.9	–	–	–	–
GAAUUAAUUAAUUAAUAAUACAUGAGGAUCACCCAUGUAGAUCCUACAUACAAUUUAAGUAGCUCGUCUUAUAAUUA [Stov1/1-A2] (Eterna round: R97, puzzle: Sensor, turn-off variant 1)	108	202	–	–	–	–
ACCUCACAUGAGGAUCACCCAUGUCAGGAUAUGUACCCGAUCAAGUCAGAGAUCGGAAGCAGAAGGGACUGCGG [Bemabebe] (puzzle: Exclusion 1)	–	–	–	26.5	99.3	86.5
UGCGGGCUUUUGAGACCUCACAUGAGGAUCACCCAUGUGCUCGUCUUAUGGGCCGGCCGGCCGUUGGCCGGCCGGCC [-44, -68.1 kcal, A 12%] (Eterna round: R97, puzzle: Sensor, turn-off variant 1)	70.2	67.8	–	–	–	–
AACAGUAGAGGAUAUACACGAACAAACAUGAGGAUCACCCAUGUGAAACCGUGCUGUCCGGUAGAAGGCUACUAUA [Zavetiaton] (Eterna round: R97, puzzle: Exclusion 5)	40.6	17.4	–	–	–	–
UUUUGGCAUGUAGGAUAUGGGUCCGAUUAGGAUUUAGAAGGACAUGAGGAUCACCCAUGUGCACUUAAUUGGUCUUUUUUUUUU [EXclNG1-LROPPY16] (Eterna round: R96, puzzle: Exclusion NG 1)	37.7	36.5	23.5	–	–	–
CUGAGUAGUCAGGAUAUGUGGUACAAAAGUACAGCAGAAGGGAUUACAUGAGGAUCACCCAUGUUUACUUCAUG [Omei Ex6 B16] (Eterna round: R97, puzzle: Exclusion 6)	57.9	32.6	–	–	–	–
CCGAUAAUGUAGGAUAUCGUAUCGGAGACGAUACGAGAAGGACAAACAUGAGGAUCACCCAUGUUCCUUAACGG [Mat - Exclusion 6 - Eli Mod - D74] (puzzle: Exclusion 6)	–	–	–	–	13.5	–
ACUGUUUGAUACCUCUUAUACAUGAGGAUCACCCAUGUUAUCGAGGAUAUGCAUUAGAGUGGUUAGCAGAAGGCGAUGUAAUUG [JR_ExcNG3_Sub032] (Eterna round: R96, puzzle: Exclusion NG 3)	30.8	13.5	12.1	–	–	–
UACAAGCUUUUAAGAUCCCACAUGAGGAUCACCCAUGUGCUCGUCUUAUAACGUACUGUGACGAAAGUCACGGUACG [JL TOV1 3.24] (Eterna round: R97, puzzle: Sensor, turn-off variant 1)	15.8	24.3	–	–	–	–
CUGGUCCGAGGAUAUAUUAAGUGAUACAUGAGGAUCACCCAUGUUAUUUGAUGGAUGUUAAUAGAAGGCGGACUAG [JL-ex5-3.18] (puzzle: Exclusion 5)	–	–	–	78.3	35.7	57.6
AAGUGCAAAGGAUAUACGUGACUUACUCCAAUUGCUACCCGACAUGAGGAUCACCCAUGUAGAAGGUUGCGCAC [Eternabot (Original) Solution 20] (Eterna round: R97, puzzle: Exclusion 2)	34.3	16.6	–	–	–	–
